A short description of the series: label from the status in PepcDB records.
“MASDINAKLRQKQYEAAVLEFAGDRKGYFVVASDDPQFASLLRQTLTKHLAIPGDAMSTVANPDHILRELKNVTMRRKTVLLFLERILEGRDTNLLVRQLKSAYPDLKIIVITGETERNRLVLLHEVGADNFITKPVSMNTLIEKMAFTIKPLGKLGQLIDQAREFVHQNLPEQGIKLCRQILELKPGSAAGYLVMGEAYQHLGKLDKARECYEEASRNAELYLEPLRRLADIHGEMGEPTEQLRYLERLDQLSPLNVERKVDMGAIHLELGNQEKADELFDTAVQQATREALSYIADISGRIAGIYNGRDPQRAEHFLRRALDAKGDMLDASDLDTFNRLGIALRRQGKWQEALTEYHKALRVAPEDENLFYNMGMACAEGRDFREARANMLKALTINPELPRRDPVMAYNIGLVFMRAGGREYAERCLNIALELDPGFTKAREALERLG”: the protein production entry is recorded as “failed”.

For the sequence “MIRFTMMPGEDGDCLLLEYGDGTFLRRILLDGGRSGTYPRIRPTLAGLDGLVDVLVVTHVDQDHLLGVLALLNDPDRSVEFGDVWFNGFDHLLEFEGFGAQDGEKLTSALVEQKLPWNDAFGGLSVEVGRELVWFDDGSTVDVLSPDRGQLESLAPDWVKECAKHGLIPGRDPDEIPLVPGFEHFGGVNVEELAARPFRPDTSKTNLTSIGLLFEFEGKRIILTGDADDRRLVRSIRPRAEAEGGRLHVDVLKVAHHGSDHNLSKDLLDLIDCDRYLISTSGARHDHPNAIAVARILKHGGAKKEIVFNYRDRAAIWDVDSLKDRFGYTVTAPAPDAEDGFVSFEL”, the protein production result was “failed”.

“MVEGSQEAKVAEILQKMEEMIGEEPKPQKLFSKVAPEWLERQMDERQFVMSLESIPEKYKHLIMIAVAAAVGSKMCTEVFTKIAKRRGVSEREIGEAILVARFALASTIFATVTPALEWLEGGDEE”: the protein production result was “failed”.

“MTAGHGIAALPGTMRVFERGWLSSNNILFFDDDAHGGCALVDSGYLTHAPQTVALARHALQGRPLRRLLNTHLHADHCGGNAALQAAYGCRIRVPAAQIGDVRRWDTDALSYRPTGQQCERFTLPEGDTAEAGLADGMTARLGGLDWQVISAPGHDPHAVILYSPDTRVLLSADALWERGFGVIFPELEGESGFAEQEAILACIARLGARVVVPGHGRPFTEVDAAIDAARGRLAYLRADPERNALHALRVLVKFKLLEQQAMTREALAAWFAQASLIPRLQARFFAATPLPALLEATVAALVKAGAAAVEATRIVNRG”: the protein production result was “failed”.

Take “MSILHTVNKSPFERNSLESCLKFATEGASVLLFEDGIYAALAGTRVESQVTEALGKLKLYVLGPDLKARGFSDERVIPGISVVDYAGFVDLTTECDTVQAWL”: the protein production entry is on record as “not failed”.

For “MRLEKQLIKKMYYETFLMENETKPTLDVLGQAYVNEEKNEISDGSYIRFAQGEFYYRHQDFEAAIFKWEKVSNELAPWAQKNIADAYFELNQLSFAENIYTSITTDNKILMTEIRLQLLSLYIEQNNFDSAFGVIKEAVSLNPDYPNVTKIARSFYEEQQDFDSAVELAVNELIRIESYPWFEVLKGYIDKGFTKHISPDYFYDALATLNNVDQVQFTQMVSSLWNSYKNEKNYLLWLNTINEFFLHIEIHSSDIWNKVSALYEETYFALIQGQYTLRQLNDIIPNLLANWLKVVNPSYAVFPSAAVLAWDEIFPSKIDSANIEHAENLLSHSINHVNGLEYSLHLFESITQWAQKQNIEIGHRFKWLVDELADLRTNRILVTGTSGNGKTTFINSILGENILEKSISNVVVLKNDAHIEINAITDSAITTTEDVSDYHNMMSQHHQTYRDRACVEFKLPCRFLNENKLTFVVTPGFNRNNDTRDEIFEYLNSVDELLFVLNADSPFTDKERDILLSIQEHTPNLQIHFLLNKIDNIYSEAEVKRVLHDTATRINTYFPYARIFPYSSLYTSSQQLNDLTEFIHFNFNHKNIDAERTEKLLFFIRKTITYLLDKRVEKENNLVDAINWNEDMLVKLNGSINNLTTFEREKIHFITQSYRSMKTEITNDLTENIPKILKSCSNLISEESDFGHMDTELNKAMNERVHKYLEQTVLPNLALSMQNWIATSNNELLQSQTYLEELSEGLNSLFGENRIQLECDFKVLDDWRRDTDRMTTRIQMDEVNILRRFTPAQFLLKSAGKLFGVLPKNKSMLYNKYKQYVENEDYTEVTASIMKKFFLQFELFENTQERDINIFFRNPFNSLKQAVENTHLEIQEKQEILHKMKSNPEIYHDSIMLFELRLRQCEVILNIGNDNTYTDVALETSVE”, the protein production result is listed as “failed”.

As to “MHVPIRLLEWFKVEQTLVIQKKKRFGFSQGIGITLLIAIVAKYLAELPFLNIMGQLVIAILIGMVWRAAIGVPHDAIAGTNFASKKLLRFGIILLGMRLNLVDIAKAGPKVLVIAAVVITFTIFVVYGLTKVFKVEKKLGILTACGTAICGAAAVVAIAPQVKAKDDETAVGAAIIAILGTIFTLIYTLLYPVLGLSPYGYGVFSGATLHEIAHVIAAAAPGGSAAVDIAVIVKLTRVAMLVPVAILIGLWFGKSEGSKEKRSWRDLPIPWFIFGFLAMSAVHSLGIIPEVVAGYIVVIAYMLIAMAMAGLGLNVEFKTFRKLGSKAFVAGLIGSVCLSVLGYVLVYALGFM”, the protein production entry is “failed”.

On to “MSEIIIQNLISPVVLFFLLGIIAATFKSDLQFPKGLTEALSMYLLIAIGIKGGIELSHYHLEAVIGPVIGTIFLGMLIPVIVLMITRLFMKVDLKNSIALAATYGSTSIVTYGAAVSFLEKSGTTYEGFMNAMVVLKESPAILVSLLLLSIIERQQAVPTTLSSKRVGIVSGHQGLIDKEVLKESFFGKSIILLLGSLIIGLVVGERAIPMVQPLFIDLYQSVLILFLLYMGLTVGERLPEVKKHGIKLILFGVLTPILLGALGVLVGTLAGLSVGGATLMGILAGSASYIAAPAALRTSVPEANPSIYLGLSLGVTFPFNLIFGIPLYFEFAKLLH”, for which the protein production entry is on record as “failed”.

With “MQQRRPVRRALLSVSDKAGIVEFAQALSARGVELLSTGGTARLLAEKGLPVTEVSDYTGFPEMMDGRVKTLHPKVHGGILGRRGQDDAIMEEHQIQPIDMVVVNLYPFAQTVAREGCSLEDAVENIDIGGPTMVRSAAKNHKDVAIVVKSSDYDAIIKEMDDNEGSLTLATRFDLAIKAFEHTAAYDSMIANYFGSMVPAYHGESKEAAGRFPRTLNLNFIKKLDMRYGENSHQQAAFYIEENVKEASVATATQVQGKALSYNNIADTDAALECVKEFAEPACVIVKHANPCGVAIGNSILDAYDRAYKTDPTSAFGGIIAFNRELDAETAQAIISRQFVEVIIAPSASEEALKITAAKQNVRVLTCGQWGERVPGLDFKRVNGGLLVQDRDLGMVGAEELRVVTKRQPSEQELRDALFCWKVAKFVKSNAIVYAKNNMTIGIGAGQMSRVYSAKIAGIKAADEGLEVKGSSMASDAFFPFRDGIDAAAAAGVTCVIQPGGSIRDDEVIAAADEHGIAMLFTDMRHFRH”, the protein production entry was “not failed”.

Consider “MNGDRTGLGSTRLGRIAIAGGKQLLGKINSARKNFPMKIFLLLLGFYTANALATILGQTGDWDVLVAGIVVAAIEGIGMLMYKKPSSSMFSGKLQSFVVFMNFWKAGVCLGLFVDAFKLGS”, for which the protein production entry is “failed”.

On to “MVSPQGVIVARAIISCGVASKKPFYRDQTMETDFSVHSHKGKGSLMRRKPALRLLCSAALAAALAIGAGASPGFAETKAKPEDKAVTFDPGKVNTFSGAFLAGRNADVDQDYPTAISLYKKALEYDPANSEIRQRLMIAELLSGNFEAGAKIADSMKDDTSVERVTTIVRGLDAIKDKEFTKAEKILKYTGPNDLDRMVNTLLTAWARAGSGKPKEALALVNNMKGPGWISIFQKYNAAAIALVSGNTEAARKSLNEAVTDREGGATASDTYMRAVMALARLEASAGNKQKALDAIAVGDTFAPNYAPLKALREAIEKGEKPEQQITNAVEGAASVMFSIAGALNREGAEEIVTLYLQTSRALDPKSPDTLILLGGLAEAMKQPERAITFYREVPKDSPMHRISELQLGLTLAQTGKVEESRKHLLSLLESDPKDIRSYLAYGSVLSDAKDYKAMAENYDKAVEVIGAVPQKSDWSVFFQRGIAYERLKQWDKAEPNFKRALELNPEQPQVLNYLGYSWVDKGINLDEGMKMISRAVELRPNDGYIVDSLGWAHYRLGDFDQSVTELERAIELKAGDPTINDHLGDAYWRVGRKIEAVYQWNRALIGDNDDVDKAKVKEKIANGLPPVEKDAENTAKKDVAPQPPAPPAPATPTPDKKS”, for which the protein production entry is reported as “failed”.

As for “MAANGVSSGACAVSEEEARSEAERLLADPRLHVSDRHRAFLRYIVDARFEGRSDTIKAYSIAIDVFKRPASFDPSSDPIVRIEATRLRESLQKYYAQLADEPGARLDIPRGRYVPVFVERDNPPCPEEDGELEDVGLPTEEPTQAASRPEGRNWRHAIMGGAALAAVSLTGSLAYLAASAAHLNTQKPFVALSINASQNDKAAGEAVMEDLAVSLARFGTVRLKSGASGSRVPSDAMEQSLYEINMRYAENESSVSLWWQVSDAANGEAVWTDEERRPVAAGSREEAMRDLVFAVSRRLARPAGIINTIELRRNLPSSTIGNVCVLRGEFAVEQRDAAGLEAARSCLAATIASDPTDADAMATLARVYVWIGRATGDDSYFGRGLELANRAATLSPSSPRAALAQLGVQYQLGQNEISIAAGRRGVALNPENADLLAKLSMVVFLTGHWDEGVQLARQATEIAGQPIRDASFVMILNDYRQERYAQAVFLARQVPAPDAPTTVLKLAAIARLGDRPVTQQEIAAARLQHPDLERTVTAMFSGARYDSNLRDALRAGILEAGLKMPELASNGAM”, the protein production entry was “failed”.

Consider “MAKSPKKSKSRLWFLVHSWLALPIWFFVLIVCFTGMLAVVSQEIVWLADPAARANKPDADTERMSFQQVLEALNKAEPDMVVERLSQPDGSHFAVKANVTLPDGTSPTLYVNPYTGTIQGRTPDFNFEAFTRALHGWWLVPFTNGFSWGWYLVSLLGLPMLASLVTGLVVYKKFWKGFFKPVRTGHGSRIFWGDLHRLSGVWSIWFIAVISITGTWFLIQAILSDNHITISSRPIVPVIAREEVPQTPDGSPASRIDLDEAARLAGLAIPGLEVTSITLPATAYSHVTLSGPGWYPLMFQSASVNPYTRNVDSQFLISDRSALEFVTESMRPLHTGDFGGLPIKLVWFFFGLILTLMVLSGLLIWTKRTAQATAAALKRSERAPRAAHSETTVEIHS”, for which the protein production entry is “failed”.

“MKPSGEDQAALAAGPWEECFQAAVQLALRAGQIIRKALTEEKRVSTKTSAADLVTETDHLVEDLIISELRERFPSHRFIAEEAAASGAKCVLTHSPTWIIDPIDGTCNFVHRFPTVAVSIGFAVRQELEFGVIYHCTEERLYTGRRGRGAFCNGQRLRVSGETDLSKALVLTEIGPKRDPATLKLFLSNMERLLHAKAHGVRVIGSSTLALCHLASGAADAYYQFGLHCWDLAAATVIIREAGGIVIDTSGGPLDLMACRVVAASTREMAMLIAQALQTINYGRDDEK”: the protein production entry is on record as “not failed”.

For the sequence “MVRKSIDRSTAAEITRGIGNVFADLGMPDAEERQTKLRLAYALNAVIDRARLSQAAAAARLGINQPKVSALRNYKLEGFSVERLMTLLNALDQDVEIVIRKKPRSRAAARISVVAA”, the protein production result was “not failed”.

“MRSNYAKKLVAGTLVASMTITASMPLFADELATEIPSAGAAVIVEDYINNSGKETDIEKLLPTEATDSTATANETTKTENQTEKTQTSNTATSSEDKLFANIAITKVSGGAEDYVNVRKKPTTESKVVGKIYNNSGAKILEKTNNGWYKIVSGNCTGYIKSDFFVTGSSAKSRALDNGYVQAEAKDAIHVRAEASTNSKVVTNVYKNETYTIKKFDKTGEWIKVKIKAGVSGWISAQYANVNINMETAITRKIEKAKIKKEREAAKAAAKAAAEEEARKQAEQQEQQASNDNSQSSSDGTYSNSSNSSSRSNYSNSSSSSSSSSSSSSSSSSKKSHSSSSSSSSGSGTGAAIVAYAKQFLGNPYVYGGASLTNGTDCSGFTMSVYAHFGYGLSRSSYTQVNNGRAVSMSSLQPGDLLFYKYGGSTISHVAIYIGGGQIIHASTEETGIIISGMGSPCAARRIIG”: the protein production result was “failed”.

The values above are taken from a protein production outcome set (Wang et al. 2014).
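Further: failed if final PepcDB status was selected cloned or expressed and not failed if soluble or beyond.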
